{"source": "paper PMC5463187", "about": "(Nature microbiology, 2017)", "binders": {"B1": {"name": "hRSV61 (antibody, V domains shown)", "VH": "QVQLVQSGAELKKPGASVKVSCKASGYTFTNHGITWVRQAPGQGLEWMSWISGYNGNTQYAQKFQGRVTMTTDTSTRTAYMELRSLTSDDTAVYYCARDNGVVVGPPDYWGQGTLVTVSS", "VL": "DIQMTQSPSTLSASVGDRVTISCRASQSISSWLAWYQQKPGKPPKLLIYKASGLQTGVPSRFSGSGSGTEFTLTISSLQPDDFATYYCQYYHSLSAFGQGTKVEIK", "notes": "also called mAb hRSV61"}, "B2": {"name": "hRSV97 (antibody, V domains shown)", "VH": "EVQLVESGGTLVQPGRSLRLSCAASGFNFEEYAMHWVRQVPGKGLEWVARINWNGGIIGYADSVKGRFTISRDNAKKSLYLQMNSLRTDDSALYYCGKDVFWAVAGTGGPIDSWGQGTLVTVSS", "VL": "DIVMTQSPSSLSASIGDRVTISCRASRDISNYLAWYQQKSGKVPKLLIYAASTLESGVPSRFSGSGSGTDFTLTISSLQPEDVATYYCQNYNSAQMCSFGQGPSLEIK", "notes": "also called mAb hRSV97"}, "B3": {"name": "hRSV20 (antibody, V domains shown)", "VH": "QVQLVESGGGLVQPGRSLRLSCAASGFTFDDYAMHWVRQAPGRGLEWVSGISWNSGIAVYADSVKGRFTISRDNAKKSLYLQINSLRAEDTALYYCVKDNYASGSYSSYYYYYGLDLWGQGTLVTVSS", "VL": "EIVMTQSPATLSVSPGERATLSCRASQSIISNLAWYQQKPGQAPRLLIYGVSTRATGIPARFSGSGSDTEFTLSISSLQSEDFAVYYCQQYNNWPITFGQGTRLEIK", "notes": "also called mAb hRSV20"}, "B4": {"name": "hRSV90 (human mAb, IgG) (antibody, V domains shown)", "VH": "EVQLVESGGGLVQPRRSLRLSCAASGFTFDDYTIHWVRQAPGKGLEWVSGITWNSGYIGYADSVKGRFTISRDNARNSLYLQMNSLRAEDTALYYCVRDAYVSGSDYYYYGLDVWGRGTLVTVSS", "VL": "EIVMTSSPATLSVSPGERVTLFCRASQSVISNLAWYQQKSGQAPRLLIYGASTRATGIPSRFSGSGSGTEFTLTISSLQSEDFAVYFCQQYNNWPLTFGGGTQVNVQ", "notes": "IgG1, kappa; also called mAb hRSV90"}, "B5": {"name": "hRSV139 (antibody, V domains shown)", "VH": "QVQLVQSGAEVKKPGASVKVSCKASGYVFSNYGISWVRQAPGQGLEWMGWISAYNGNTEFAQKFQGRITMTTDTSTNTAYLEVRGLRSDDTAVYYCSRQSGVSGVPEFQDWGQGTLVTVSS", "VL": "QAVVTQSPLSLPVTLGQPASISCRSSQSLVYSNGDTYLSWFQQRPGQSPRRLIYKVSNRDSGVPDRFSASGSGTDFTLKISRVEAEDVGVYYCMQGTHWPPPTFGQGTRLEIK", "notes": "also called mAb hRSV139"}, "B6": {"name": "hRSV12 (antibody, V domains shown)", "VH": "QVQLVQSGAEVKKPGTSVRVSCKTSGYNFMNYGIYWVRQAPGQGLEWVGWISAYNGQTDRAQKFQGRVTMTTDISTNTGYMDLRSLRSDDTAVYFCARGPPVIAAVSLEYWGRGTLVTVSS", "VL": "EVVMTQSPLSLPVTLGQPASISCKSSQSLVHSNGDTYLNWFQQRPGQSPRRLIYKVSNRDSGVPDRFSGSGSGTDFTLKISRVETEDVGVYYCMQATHWPGSFGQGTKLEIK"}}, "data": [{"biological_target": "T1, RSV strain A2 post-fusion F (Human respiratory syncytial virus …, UniProt P03420, strain)", "T1 construct": "source: HEK293, transfected, purified from culture supernatant (HiTrap Talon crude)", "assay": "ELISA", "conditions": "both partners purified", "values": [{"binder": "B1", "binding result": "no binding (tested: 1 μg ml^−1)"}, {"binder": "B2", "binding result": "no binding (tested: 1 μg ml^−1)"}, {"binder": "B3", "binding result": "no binding (tested: 1 μg ml^−1)"}, {"binder": "B4", "binding result": "no binding (tested: 1 μg ml^−1)"}, {"binder": "B5", "binding result": "no binding (tested: 1 μg ml^−1)"}]}, {"biological_target": "T2, RSV strain 18537 post-fusion F (Human respiratory syncytial virus …, UniProt P13843, strain)", "T2 construct": "also called RSV B 18537 (post); source: HEK293, transfected, purified from culture supernatant (HiTrap Talon crude)", "assay": "ELISA", "conditions": "both partners purified", "values": [{"binder": "B1", "binding result": "no binding (tested: 1 μg ml^−1)"}, {"binder": "B2", "binding result": "no binding (tested: 1 μg ml^−1)"}, {"binder": "B3", "binding result": "no binding (tested: 1 μg ml^−1)"}, {"binder": "B4", "binding result": "no binding (tested: 1 μg ml^−1)"}, {"binder": "B5", "binding result": "no binding (tested: 1 μg ml^−1)"}]}, {"biological_target": "RSV strain A2 pre-fusion F, single-chain triple mutant (SC-TM) construct (respiratory syncytial virus subgroup A …)", "assay": "cell-based or functional assay", "conditions": "not given", "units": {"plaque-reduction neutralization of RSV A2 (IC50)": "µg/mL"}, "values": [{"binder": "B1", "plaque-reduction neutralization of RSV A2 (IC50)": 0.09}, {"binder": "B2", "plaque-reduction neutralization of RSV A2 (IC50)": 0.35}, {"binder": "B3", "plaque-reduction neutralization of RSV A2 (IC50)": 0.045}, {"binder": "B4", "plaque-reduction neutralization of RSV A2 (IC50)": 0.004}, {"binder": "B6", "plaque-reduction neutralization of RSV A2 (IC50)": 0.176}, {"binder": "B5", "plaque-reduction neutralization of RSV A2 (IC50)": 0.323}]}, {"biological_target": "RSV strain 18537 B pre-fusion F (Ds-Cav1) (Human respiratory syncytial virus …, UniProt P13843, stabilised)", "assay": "cell-based or functional assay", "conditions": "not given", "units": {"plaque-reduction neutralization of RSV 18537 B (IC50)": "µg/mL"}, "values": [{"binder": "B6", "plaque-reduction neutralization of RSV 18537 B (IC50)": 0.126}]}]}
